B1: FhHDM-1: 90-residue polypeptide from F. hepatica, Helminth Defense Molecule-1 (SEQ ID NO:24); recombinant form minus N-terminal signal peptide, expressed in E. coli (protein, listed as Fasciola hepatica)
chain: MRFIVLLCLAEVLLAAYVEARPSEESREKLRESGRKMVKALRDAVTKAYEKARDRAMAYLAKDNLGEKITEVITILLNRLTDRLEKYAGN

Experiments:
RAW264.7 cells = assay: Binding of FITC-conjugated LPS to RAW 264.7 cells (flow cytometry); type: cell-based, murine; details: 0.1-10 μg/mL, 20 min at 4° C.
Experimental: (§1) FIG. 9 is a graphical representation showing LPS neutralization by FhHDM-1. The ability of FhHDM-1 (Δ), FhHDM-1 p1 (●) or FhHDM-1 p3 (▪) to bind to LPS was investigated by (A) incubating a range of concentrations of proteins (0.02-2 μg/well) in an LPS-coated (100 ng/well) microtitre plate. Bound peptides were detected by ELISA using rabbit anti-FhHDM-1 as a primary antibody. (B) FhHDM-1 or derived peptides (0.1 μg) were incubated in the presence of LPS (0.05-5 μg/well) and bound peptides measured as described above. Binding of peptides to the LPS-immobilized plates was expressed as a percentage of that measured for 2 μg (for panel A) or 0.1 μg (for panel B) of FhHDM-1. Data are the means±SD from three separate experiments. (C) FhHDM-1 and FhHDM-1 p3 but not FhHDM-1 p1 reduced the interaction between LPS and LBP as effectively as LL-37. LPS-coated microtitre plates were incubated with 5 μg/well of LL-37, FhHDM-1 or derived peptides for 1 h prior to the addition of 10% human sera in PBS. Interaction of LBP with LPS was measured by ELISA using an anti-LBP primary antibody and expressed as a percentage of that detected for 10% sera in the absence of added peptides. Data are the mean±SD of three separate experiments. Statistical significance was calculated using the student t-test and represent a comparison to the binding of 10% sera to immobilized LPS. (D) Binding of FITC-conjugated LPS to RAW264.7 cells was inhibited by LL-37, FhHDM-1 and peptides. […] The binding of FITC-LPS was analyzed by flow cytometry. LPS binding was expressed as a percentage of the mean fluorescence obtained for the addition of FITC-LPS to cells in the absence of peptides. […] Two hours later, sera was collected and serum levels of TNF and (F) IL-10 measured by ELISA. (G) Peritoneal macrophages were isolated, cultured unstimulated in media overnight and then levels of TNF and (H) IL-10 in the culture measured by ELISA. […]
The effect of FhHDM-1 and derived peptides on the binding of FITC-LPS to CD14+ cells was determined by flow cytometry of the murine macrophage cell line RAW264.7. […]

LPS-binding ELISA = assay: LPS-binding ELISA; parameters: species or system E. coli; details: for binding to immobilised LPS: 0.02-2 μg/well on LPS-coated plate (100 ng/well)
Experimental: as §1
The ability of FhHDM-1 and derived peptides to bind LPS from E. coli 0111:B4 was determined by ELISA using rabbit anti-FhHDM-1 as a primary antibody (FIG. 9A). […]

[1] = test system: interaction of LPS with LPS-binding protein (LBP); assay: Assay for the interaction of LPS with LBP (ELISA); parameters: species or system mouse; details: 5 μg/well, 1 h before 10% sera; ELISA with anti-LBP
Experimental: as §1
The ability of FhHDM-1 and derived peptides to block the interaction of LPS with LPB was assessed by ELISA using an anti-LBP primary antibody. […]

Molecule	binding of FITC-LPS to RAW264.7 macrophages (RAW264.7 cells)	binding to immobilised LPS (LPS-binding ELISA)	interaction between LPS and LBP [1]	binding to free LPS in solution (competition with immobilised LPS) (LPS-binding ELISA; 0.1 μg/well with LPS 0.05-5 μg/well)
KARDRAMAYLAKDNLGEKITEVITILLNRL (FhHDM-1 peptide 1 comprising a truncated amphipathic helix contained in FhHDM-1) [FhHDM-1 p1, peptide in which the amphipathic helix is truncated]	reduced binding of FITC-LPS to the cells in a dose-dependent manner albeit to a lesser extent	did not bind to LPS	did not block	–
B1	reduced binding of FITC-LPS to the cells in a dose-dependent manner albeit to a lesser extent	bound to LPS in a concentration-dependent manner	significantly reduced	bound to free LPS in solution
